Test results as given in US20020022239A1, “PHYTOFLUORS AS FLUORESCENT LABELS” (priority 1999, published 2002).
Changes are numbered by the printed parent chain. Names may count otherwise.

B1: Cph1 (N514) R222G: site-directed single mutant R222G of Cph1 (N514) (protein, UniProt Q55168 1-514, looked up, variant R222G)
chain: MATTVQLSDQSLRQLETLAIHTAHLIQPHGLVVVLQEPDLTISQISANCTGILGRSPEDLLGRTLGEVFDSFQIDPIQSRLTAGQISSLNPSKLWARVMGDDFVIFDGVFHRNSDGLLVCELEPAYTSDNLPFLGFYHMANAALNRLRQQANLRDFYDVIVEEVRRMTGFDRVMLYRFDENNHGDVIAEDKRDDMEPYLGLHYPESDIPQPARRLFIHNPIGVIPDVYGVAVPLTPAVNPSTNRAVDLTESILRSAYHCHLTYLKNMGVGASLTISLIKDGHLWGLIACHHQTPKVIPFELRKACEFFGRVVFSNISAQEDTETFDYRVQLAEHEAVLLDKMTTAADFVEGLTNHPDRLLGLTGSQGAAICFGEKLILVGETPDEKAVQYLLQWLENREVQDVFFTSSLSQIYPDAVNFKSVASGLLAIPIARHNFLLWFRPEVLQTVNWGGDPNHAYEATQEDGKIELHPRQSFDLWKEIVRLQSLPWQSVEIQSALALKKAIVNLILRQAEE
modifications: N514 fragment
B2: Cph1 (N514) DR171/2AA: double mutant D171A/R172A of Cph1 (N514) (protein, UniProt Q55168 1-514, looked up, variant D171A R172A)
chain: B1 chain with D171A, R172A, G222R
modifications: N514 fragment
B3: Cph1 (N514) D171A: site-directed single mutant D171A of Cph1 (N514) (protein, UniProt Q55168 1-514, looked up, variant D171A)
chain: B1 chain with D171A, G222R
modifications: N514 fragment
B4: Cph1 (N514) DR171/2AG: double mutant D171A/R172G of Cph1 (N514) (protein, UniProt Q55168 1-514, looked up, variant D171A R172G)
chain: B1 chain with D171A, R172G, G222R
modifications: N514 fragment
B5: Cph1 (N514) Wild Type: N514 deletion mutant of Synechocystis sp. PCC 6803 apophytochrome Cph1, wild-type sequence (protein, UniProt Q55168 1-514, looked up, fragment)
chain: B1 chain with G222R
B6: Cph2-N197: Strep-Tagged N-terminal 197 amino acid region of Cph2 (SEQ ID NO: 9), module 1 only (protein)
chain: KLAVRAISRLQSLPGGDIGALCDTVVEDVQRLTGYDRVMVYQFHEDDHGEVVSEIRRSDLEPYLGLHYPATDIPQAARFLFKQNRVRMICDCNATPVKVVQSEELKRPLCLVNSTLRAPHGCHTQYMANMGSVASLALAIVVKGKDSSKLWGLVVGHHCSPRYVPFPLRYACEFLMQAFGLQLQMELQLASQLAEK
modifications: Strep-Tag
B7: cph2a (N390): first 390 amino acid residues of Cph2 (SLL0821), N-terminal phytochrome-related domain (protein, UniProt Q55434 1-390, looked up, fragment)
chain: MNPNRSLEDFLRNVINKFHRALTLRETLQVIVEEARIFLGVDRVKIYKFASDGSGEVLAEAVNRAALPSLLGLHFPVEDIPPQAREELGNQRKMIAVDVAHRRKKSHELSGRISPTEHSNGHYTTVDSCHIQYLLAMGVLSSLTVPVMQDQQLWGIMAVHHSKPRRFTEQEWETMALLSKEVSLAITQSQLSRQVHQQQVQEALVQRLETTVAQYGDRPETWQYALETVGQAVEADGAVLYIAPDLTGSVAQHYQWNLRFDWGNWLETSLWQELMRGQPSAAMEPMAAVQSTWEKPRPFTSVAPLPPTNCVPHGYTLGELEQRSDWIAPPESLSAENFQSFLIVPLAADQQWVGSLILLRKEKSLVKHWAGKRGIDRRNILPRLSFEAWE

Assay: Covalent bilin (PCB) binding of recombinant apophytochrome polypeptides upon incubation with PCB (zinc blot)
Settings: for PCB Binding: site-directed mutants of Cph1 (N514); for covalent binding of PCB: incubation with PCB
Source text: This work thus confirms that the structural motif illustrated in FIG. 2 represents the bilin-binding domain of the ‘phytochrome superfamily’ from which new phytofluors of different colors can be devised.
Based on the multiple sequence alignment shown in FIG. 2, and using methods described in W098/04700, a bacterial expression vector express a Strep-Tagged version of N-terminal 197 amino acid region of Cph2 (Cph2-N197) that encompassed ‘module 1’ only was constructed (see, FIG. 3).
To address the importance of conserved residues in the bilin lyase domain of Cph1 to bilin attachment and spectral properties of its bilin adducts, site-directed mutagenesis of some of these residues were undertaken. Charged residues D171, R172, E189 and R222 of Cph1 (N514) were mutagenized in the initial studies.

Row | PCB Binding | covalent binding of PCB | Molecule
1 | yes |  | B1
2 | no |  | B2
3 | yes |  | B3
4 | no |  | B4
5 | yes |  | B5
6 |  | yielded a covalent biliprotein adduct | B6
7 |  | covalently bind PCB | B7
